The values that follow are results of earlier work, collected in PMC7609432.

What is called Kd is the free concentration of one partner at which half of the binding sites on the other are occupied at equilibrium, for simple one-to-one binding.

Where two headings read alike, the source gives them in different places. A value given as a limit tells only on which side of the number the result lay.

The target of series [1] is IQGAP1 (Danio rerio). Kind of series: SW-FCCS.
In series [2] the target is IQGAP1 (Danio rerio). Kind of series: SW-FCCS. The source holds these as a separate data set.

IQGAP1 (Danio rerio), sequence (P46940 2-1657): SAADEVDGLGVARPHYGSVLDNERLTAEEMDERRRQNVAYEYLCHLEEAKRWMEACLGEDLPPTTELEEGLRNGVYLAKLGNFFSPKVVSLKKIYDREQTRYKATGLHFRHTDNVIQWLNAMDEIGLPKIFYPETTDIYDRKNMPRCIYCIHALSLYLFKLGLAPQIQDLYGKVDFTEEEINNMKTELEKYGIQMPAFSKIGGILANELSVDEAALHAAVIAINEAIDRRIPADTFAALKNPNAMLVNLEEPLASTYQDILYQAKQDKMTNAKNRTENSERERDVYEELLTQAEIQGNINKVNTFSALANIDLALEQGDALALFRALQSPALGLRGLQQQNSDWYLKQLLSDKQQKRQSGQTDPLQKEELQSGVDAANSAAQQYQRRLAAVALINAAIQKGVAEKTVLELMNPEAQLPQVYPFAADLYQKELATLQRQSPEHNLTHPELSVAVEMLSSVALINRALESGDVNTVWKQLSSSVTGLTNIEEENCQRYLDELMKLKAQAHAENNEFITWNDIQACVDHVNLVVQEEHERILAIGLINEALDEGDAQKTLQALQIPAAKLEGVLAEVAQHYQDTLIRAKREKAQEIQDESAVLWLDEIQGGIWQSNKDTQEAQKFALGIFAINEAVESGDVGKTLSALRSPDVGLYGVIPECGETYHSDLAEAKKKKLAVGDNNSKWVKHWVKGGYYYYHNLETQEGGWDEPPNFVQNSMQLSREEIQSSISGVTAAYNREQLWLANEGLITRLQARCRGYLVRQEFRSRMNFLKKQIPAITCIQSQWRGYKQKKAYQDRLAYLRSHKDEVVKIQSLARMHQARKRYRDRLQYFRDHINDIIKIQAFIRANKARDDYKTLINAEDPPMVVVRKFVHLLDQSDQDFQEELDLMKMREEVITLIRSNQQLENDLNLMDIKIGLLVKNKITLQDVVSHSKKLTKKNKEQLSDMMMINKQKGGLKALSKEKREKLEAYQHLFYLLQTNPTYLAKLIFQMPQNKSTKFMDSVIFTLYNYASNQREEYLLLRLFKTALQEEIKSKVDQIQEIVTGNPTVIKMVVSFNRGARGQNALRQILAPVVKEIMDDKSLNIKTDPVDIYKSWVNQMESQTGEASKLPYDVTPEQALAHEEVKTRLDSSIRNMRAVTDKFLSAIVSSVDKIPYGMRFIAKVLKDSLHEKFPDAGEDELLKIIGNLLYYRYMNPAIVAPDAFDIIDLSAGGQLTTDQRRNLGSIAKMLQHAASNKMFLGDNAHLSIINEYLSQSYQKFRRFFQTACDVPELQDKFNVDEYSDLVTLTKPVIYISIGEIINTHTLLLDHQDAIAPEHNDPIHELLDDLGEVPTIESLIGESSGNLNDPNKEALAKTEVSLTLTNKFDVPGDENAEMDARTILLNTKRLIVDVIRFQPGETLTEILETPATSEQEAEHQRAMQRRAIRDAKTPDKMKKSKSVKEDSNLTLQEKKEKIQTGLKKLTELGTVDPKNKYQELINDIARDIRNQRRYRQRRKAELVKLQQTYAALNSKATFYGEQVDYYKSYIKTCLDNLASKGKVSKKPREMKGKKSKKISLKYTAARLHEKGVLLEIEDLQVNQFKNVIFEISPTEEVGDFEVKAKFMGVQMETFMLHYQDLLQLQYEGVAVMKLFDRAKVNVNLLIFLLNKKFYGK

Cdc42 (from UniProt P60953): the dissociation constant Kd with IQGAP1 (Danio rerio) [1] is more than 1500 nM; with IQGAP1 (Danio rerio) [2], 105 nM.
